Literature values in paper PMC11036797.

How the values were obtained:
[1] = target: nectin-3 (Homo sapiens) (UniProt Q9NQS3)
[2] = target: FZD1 (Homo sapiens) (UniProt Q9UP38)
[3] = target: FZD7 (Homo sapiens) (UniProt O75084)
[4] = target: FZD2 (Homo sapiens) (UniProt Q14332)
[5] = target: CSPG4 (Homo sapiens) (UniProt Q6UVK1)
CSPG4 (Homo sapiens), sequence (Q6UVK1 30-2322): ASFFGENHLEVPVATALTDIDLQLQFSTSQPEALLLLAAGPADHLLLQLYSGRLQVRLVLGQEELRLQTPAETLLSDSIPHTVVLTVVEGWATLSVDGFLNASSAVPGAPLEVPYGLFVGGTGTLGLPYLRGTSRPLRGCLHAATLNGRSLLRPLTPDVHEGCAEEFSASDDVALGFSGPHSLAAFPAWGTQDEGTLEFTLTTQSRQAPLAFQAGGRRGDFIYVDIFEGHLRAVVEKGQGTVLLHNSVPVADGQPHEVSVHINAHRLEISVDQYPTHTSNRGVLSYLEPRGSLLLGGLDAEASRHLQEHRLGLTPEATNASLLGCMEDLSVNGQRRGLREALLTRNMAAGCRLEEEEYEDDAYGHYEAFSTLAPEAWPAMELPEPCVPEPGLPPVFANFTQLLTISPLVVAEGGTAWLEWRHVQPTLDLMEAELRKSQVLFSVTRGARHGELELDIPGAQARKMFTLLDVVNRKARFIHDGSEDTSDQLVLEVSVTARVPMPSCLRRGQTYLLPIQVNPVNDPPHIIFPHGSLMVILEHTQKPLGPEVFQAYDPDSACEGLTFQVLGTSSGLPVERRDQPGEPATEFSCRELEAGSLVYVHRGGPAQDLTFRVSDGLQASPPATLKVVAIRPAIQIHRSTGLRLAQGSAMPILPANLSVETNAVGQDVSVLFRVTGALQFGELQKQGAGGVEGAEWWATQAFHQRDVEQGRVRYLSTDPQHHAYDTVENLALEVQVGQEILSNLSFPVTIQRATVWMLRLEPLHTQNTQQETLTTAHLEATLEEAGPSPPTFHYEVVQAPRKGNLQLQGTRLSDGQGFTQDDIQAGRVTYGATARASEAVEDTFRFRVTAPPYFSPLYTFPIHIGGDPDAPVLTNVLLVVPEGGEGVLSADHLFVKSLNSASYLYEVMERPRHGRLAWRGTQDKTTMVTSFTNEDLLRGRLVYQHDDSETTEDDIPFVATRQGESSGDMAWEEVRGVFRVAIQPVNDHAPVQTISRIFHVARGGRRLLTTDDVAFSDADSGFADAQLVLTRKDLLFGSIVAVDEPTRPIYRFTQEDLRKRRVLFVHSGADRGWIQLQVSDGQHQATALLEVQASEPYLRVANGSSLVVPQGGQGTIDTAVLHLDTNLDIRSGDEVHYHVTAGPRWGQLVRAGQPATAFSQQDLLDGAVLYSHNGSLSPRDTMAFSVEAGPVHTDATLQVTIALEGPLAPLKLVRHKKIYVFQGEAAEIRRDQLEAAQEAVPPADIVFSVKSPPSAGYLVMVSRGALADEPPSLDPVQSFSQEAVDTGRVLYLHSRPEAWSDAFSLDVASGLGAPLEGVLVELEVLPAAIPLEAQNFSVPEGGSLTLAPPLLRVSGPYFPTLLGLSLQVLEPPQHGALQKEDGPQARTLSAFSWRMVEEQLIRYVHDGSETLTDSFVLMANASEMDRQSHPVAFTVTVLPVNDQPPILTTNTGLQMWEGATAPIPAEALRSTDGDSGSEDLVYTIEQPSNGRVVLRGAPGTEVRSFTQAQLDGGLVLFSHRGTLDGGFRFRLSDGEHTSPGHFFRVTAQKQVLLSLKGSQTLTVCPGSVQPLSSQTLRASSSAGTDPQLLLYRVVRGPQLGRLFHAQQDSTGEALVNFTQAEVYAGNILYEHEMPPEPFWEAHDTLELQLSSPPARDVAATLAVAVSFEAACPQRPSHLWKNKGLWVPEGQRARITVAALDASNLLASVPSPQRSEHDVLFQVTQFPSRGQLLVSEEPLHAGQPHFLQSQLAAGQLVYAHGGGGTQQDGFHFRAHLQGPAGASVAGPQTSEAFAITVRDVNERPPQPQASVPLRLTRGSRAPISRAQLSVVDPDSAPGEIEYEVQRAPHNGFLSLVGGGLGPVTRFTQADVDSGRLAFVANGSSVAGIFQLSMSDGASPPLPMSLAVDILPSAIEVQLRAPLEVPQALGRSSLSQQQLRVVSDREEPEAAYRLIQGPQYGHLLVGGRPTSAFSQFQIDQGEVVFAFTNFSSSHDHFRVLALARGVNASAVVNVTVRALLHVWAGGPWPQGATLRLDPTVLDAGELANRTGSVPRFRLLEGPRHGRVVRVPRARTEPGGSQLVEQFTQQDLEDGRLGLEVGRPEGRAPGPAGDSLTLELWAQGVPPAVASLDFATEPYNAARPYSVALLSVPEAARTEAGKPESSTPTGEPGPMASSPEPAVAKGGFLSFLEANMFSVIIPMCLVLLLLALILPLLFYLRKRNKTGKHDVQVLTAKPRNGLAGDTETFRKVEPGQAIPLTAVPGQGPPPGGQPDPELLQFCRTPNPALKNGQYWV

nectin-3 (Homo sapiens), sequence (Q9NQS3 58-549): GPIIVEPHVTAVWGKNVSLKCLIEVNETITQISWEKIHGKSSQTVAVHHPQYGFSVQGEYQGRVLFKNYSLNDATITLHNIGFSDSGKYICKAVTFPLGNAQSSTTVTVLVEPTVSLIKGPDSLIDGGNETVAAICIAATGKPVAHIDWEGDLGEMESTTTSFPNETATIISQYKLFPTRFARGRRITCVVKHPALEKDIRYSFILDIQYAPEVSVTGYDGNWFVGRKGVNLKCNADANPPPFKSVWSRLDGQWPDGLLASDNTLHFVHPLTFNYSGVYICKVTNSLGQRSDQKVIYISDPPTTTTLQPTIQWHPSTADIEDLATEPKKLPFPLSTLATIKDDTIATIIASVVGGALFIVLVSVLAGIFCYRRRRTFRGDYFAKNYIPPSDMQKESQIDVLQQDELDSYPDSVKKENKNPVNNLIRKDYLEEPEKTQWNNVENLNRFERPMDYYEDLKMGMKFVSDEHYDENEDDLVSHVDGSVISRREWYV
FZD2 (Homo sapiens), sequence (Q14332 24-565): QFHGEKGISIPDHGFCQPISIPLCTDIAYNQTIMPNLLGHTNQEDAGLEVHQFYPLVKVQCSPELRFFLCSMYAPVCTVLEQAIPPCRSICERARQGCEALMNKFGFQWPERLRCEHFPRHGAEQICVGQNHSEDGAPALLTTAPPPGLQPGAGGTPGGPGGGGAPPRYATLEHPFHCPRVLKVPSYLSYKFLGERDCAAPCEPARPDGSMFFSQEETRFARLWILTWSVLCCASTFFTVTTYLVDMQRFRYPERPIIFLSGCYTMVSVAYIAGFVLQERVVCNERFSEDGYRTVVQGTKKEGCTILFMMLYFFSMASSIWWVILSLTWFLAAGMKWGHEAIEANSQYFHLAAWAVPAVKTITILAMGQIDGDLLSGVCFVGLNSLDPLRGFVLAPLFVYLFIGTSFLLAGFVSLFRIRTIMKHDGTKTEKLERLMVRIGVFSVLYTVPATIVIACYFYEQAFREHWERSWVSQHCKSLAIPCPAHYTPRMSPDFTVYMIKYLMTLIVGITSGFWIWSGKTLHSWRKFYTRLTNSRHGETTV
FZD1 (Homo sapiens), sequence (Q9UP38 70-647): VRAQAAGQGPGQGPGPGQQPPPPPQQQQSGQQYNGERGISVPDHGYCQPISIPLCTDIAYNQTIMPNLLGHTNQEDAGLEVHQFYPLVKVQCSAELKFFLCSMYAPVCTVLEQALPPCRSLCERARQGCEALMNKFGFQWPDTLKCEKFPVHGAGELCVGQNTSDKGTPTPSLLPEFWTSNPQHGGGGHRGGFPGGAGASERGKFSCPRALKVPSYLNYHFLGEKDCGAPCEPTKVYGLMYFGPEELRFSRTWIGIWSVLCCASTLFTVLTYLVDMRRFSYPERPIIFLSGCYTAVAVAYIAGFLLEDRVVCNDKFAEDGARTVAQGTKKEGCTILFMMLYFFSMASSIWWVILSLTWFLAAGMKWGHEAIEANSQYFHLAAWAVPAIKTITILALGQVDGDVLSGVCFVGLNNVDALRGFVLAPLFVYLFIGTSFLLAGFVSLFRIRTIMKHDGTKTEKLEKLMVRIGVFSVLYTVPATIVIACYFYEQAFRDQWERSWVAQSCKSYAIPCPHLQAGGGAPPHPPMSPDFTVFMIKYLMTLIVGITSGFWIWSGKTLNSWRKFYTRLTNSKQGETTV

In the case of TcdB1 (from UniProt P18177), the Kd [1] is given as 53 nM, the Kd [2] is given as 32 nM and the Kd [3] is given as 27 nM. For the same substance, the Kd [4] was 19 nM and the Kd [5] was 15.2 nM.
